{
  "source": "patent US20210155689A1",
  "about": "(SHANGHAI PHARMAEXPLORER, published 2021)",
  "molecules": {"B1": {"name": "405B8H3 mouse-human chimeric antibody (antibody, V domains shown)", "VH": "QVQLQQSGAELVRPGASVTLSCKASGYTFTDYEMHWVKQTPVHGLEWIGATDPETGNSAYNQKFKGKAIMTADKSSSTAYMELRSLTSEDSAVYYCISTGWNDWGQGTSLTVSS", "VL": "DIKMTQSPSSMYASLGERVTITCKASQDINSYLSWFQQKPGKSPKTLIYRADRLLDGVPSRFSGSGSGQDYSLTISSLEYGDMGIYYCLQYDEFPYTFGGGTKLEIK", "notes": "also called mAb103-405B8H3"}, "B2": {"name": "556F6B8 mouse-human chimeric antibody (antibody, V domains shown)", "VH": "RVQLKQSGPGLVQPSQSLSITCTVSGFSLIKYGVHWVRQSPGEGLEWLGVIWRGGITDYNAAFMSRLSITKDNSKSQVFFKMNSLQADDTAIYYCAKWDGPLAMDYWGQGTSVTVSS", "VL": "DIVMTQSHKFLSTSVGDRVSITCKASQDVGTTVAWYQQKPGQSPKLLIYWASTRHTGVPDRFTGSGSGTDFTLTISNVQSEDLADYFCQQYSSYPYTFGGGTKLEIK", "notes": "also called mAb123-556F6B8; 556F8B8"}},
  "key": {"[1]": {"target": "human LAG-3 on cells (HEK293-hLAG-3 stable cell line) (human) (UniProt P18627)", "experiment": "cell-based or functional assay"}, "[2]": {"target": "human LAG-3 on cells (HEK293-hLAG-3 stable cell line) (human) (UniProt P18627)", "experiment": "FACS, HEK293-hLAG-3, antibody 8 nM"}, "[3]": {"target": "human LAG-3 on cells (HEK293-hLAG-3 stable cell line) (human) (UniProt P18627)", "experiment": "FACS, HEK293-hLAG-3, antibody 0.320 nM"}, "[4]": {"target": "monkey LAG-3 on cells (HEK293-cLAG-3 stable cell line) (monkey)", "sequence (P18627 other isoform, or with tags, fused parts or gaps limits assumed)": "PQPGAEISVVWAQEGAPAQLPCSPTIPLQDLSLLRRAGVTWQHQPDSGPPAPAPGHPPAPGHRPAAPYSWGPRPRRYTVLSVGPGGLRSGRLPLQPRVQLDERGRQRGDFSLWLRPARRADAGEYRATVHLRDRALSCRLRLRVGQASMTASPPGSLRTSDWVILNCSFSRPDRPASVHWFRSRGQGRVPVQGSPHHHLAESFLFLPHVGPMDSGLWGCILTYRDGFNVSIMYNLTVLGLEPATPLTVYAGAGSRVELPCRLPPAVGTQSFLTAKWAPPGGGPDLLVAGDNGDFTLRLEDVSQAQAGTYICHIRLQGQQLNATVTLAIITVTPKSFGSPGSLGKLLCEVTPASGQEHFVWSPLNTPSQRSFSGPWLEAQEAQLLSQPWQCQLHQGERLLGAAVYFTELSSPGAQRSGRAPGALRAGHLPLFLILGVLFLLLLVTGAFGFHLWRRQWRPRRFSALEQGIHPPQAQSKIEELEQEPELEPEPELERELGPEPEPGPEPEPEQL", "experiment": "FACS, HEK293-cLAG-3, antibody 8.000 nM"}, "[5]": {"target": "LAG-3-hFc protein (human LAG-3 extracellular region with hFc tag) (human) (UniProt P18627)", "experiment": "FACS, inhibition of LAG-3-hFc binding to MHC II on Raji cells, antibody 2.469 nM"}, "[6]": {"target": "LAG-3-hFc protein (human LAG-3 extracellular region with hFc tag) (human) (UniProt P18627)", "experiment": "FACS, inhibition of LAG-3-hFc binding to MHC II on Raji cells, antibody 200.000 nM"}, "[7]": {"target": "LAG-3-hFc protein (human LAG-3 extracellular region with hFc tag) (human) (UniProt P18627)", "experiment": "ELISA, inhibition of LSECtin-His binding to coated LAG-3-hFc, antibody 0.000 nM, replicate 1"}, "[8]": {"target": "LAG-3-hFc protein (human LAG-3 extracellular region with hFc tag) (human) (UniProt P18627)", "experiment": "ELISA, inhibition of LSECtin-His binding to coated LAG-3-hFc, antibody 0.000 nM, replicate 2"}, "[9]": {"target": "LAG-3-hFc protein (human LAG-3 extracellular region with hFc tag) (human) (UniProt P18627)", "experiment": "ELISA, inhibition of LSECtin-His binding to coated LAG-3-hFc, antibody 0.013 nM, replicate 2"}, "[10]": {"target": "LAG-3-hFc protein (human LAG-3 extracellular region with hFc tag) (human) (UniProt P18627)", "experiment": "ELISA, inhibition of LSECtin-His binding to coated LAG-3-hFc, antibody 0.064 nM, replicate 2"}, "[11]": {"target": "T1, human LAG-3 on cells (HEK293-hLAG-3 stable cell line) (human, UniProt P18627 23-525)", "T1 sequence": "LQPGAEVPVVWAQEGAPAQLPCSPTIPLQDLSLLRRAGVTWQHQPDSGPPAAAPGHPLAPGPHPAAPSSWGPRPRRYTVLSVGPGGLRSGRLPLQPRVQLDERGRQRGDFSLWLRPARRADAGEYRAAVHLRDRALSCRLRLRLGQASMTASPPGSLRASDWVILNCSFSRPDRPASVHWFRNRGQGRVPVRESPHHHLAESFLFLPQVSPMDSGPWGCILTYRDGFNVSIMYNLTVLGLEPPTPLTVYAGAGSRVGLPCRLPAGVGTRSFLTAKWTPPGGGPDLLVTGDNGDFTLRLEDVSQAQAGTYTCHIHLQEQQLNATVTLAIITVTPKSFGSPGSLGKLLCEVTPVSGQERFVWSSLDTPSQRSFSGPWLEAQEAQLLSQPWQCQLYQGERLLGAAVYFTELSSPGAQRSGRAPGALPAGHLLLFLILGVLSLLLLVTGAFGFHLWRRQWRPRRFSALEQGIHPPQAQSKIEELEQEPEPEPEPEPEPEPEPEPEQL", "experiment": "FACS, HEK293-hLAG-3, antibody 1.6 nM"}, "[12]": {"target": "T2, human LAG-3 ECD (antigen protein of the affinity test) (human, UniProt P18627 23-450)", "T2 sequence": "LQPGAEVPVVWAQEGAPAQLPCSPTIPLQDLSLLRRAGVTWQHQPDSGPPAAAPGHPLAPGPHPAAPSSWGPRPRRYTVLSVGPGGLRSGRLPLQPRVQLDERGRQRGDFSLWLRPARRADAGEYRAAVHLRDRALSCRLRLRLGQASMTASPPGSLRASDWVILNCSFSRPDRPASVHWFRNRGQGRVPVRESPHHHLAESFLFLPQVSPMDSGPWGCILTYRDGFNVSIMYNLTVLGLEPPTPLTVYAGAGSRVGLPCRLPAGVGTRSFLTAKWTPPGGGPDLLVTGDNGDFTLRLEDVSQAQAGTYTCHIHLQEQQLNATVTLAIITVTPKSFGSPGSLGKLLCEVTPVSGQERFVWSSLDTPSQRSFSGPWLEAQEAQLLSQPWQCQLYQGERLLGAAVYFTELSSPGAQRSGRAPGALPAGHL", "experiment": "SPR, CM5 chip, antibody captured by anti-human Fc IgG, antigen in flow, 1:1 fit", "description": "First, anti-human Fc IgG was immobilized on the surface of the CM5 chip to 6000-10000 RU by amino coupling method, with FC1 as the reference channel. The coupling process was as follows: a freshly prepared 1:1 mixture of 50 mM NHS and 200 mM EDC was activated for 7 minutes, then injected with 10-50 ug/ml anti-human Fc IgG diluted in 10 mM sodium acetate ph5.0 buffer. The remaining activated sites were blocked with 1M ethanolamine. Then, HBS-EP+ buffer was used to dilute the antibody to be tested to 5 ug/ml (adjustable according to the capture level) and the antibodies were captured on the chip at a flow rate of 10 ul/min to obtain a response value of about 100˜300 RU. Then the antigen protein was diluted to 100 nM (the highest concentration was tentatively 100 nM), and flew through the chip surface at a flow rate of 30 ul/min. If enough signal value was obtained, the antigen-protein was diluted by several concentration gradients, and flew through the chip surface respectively. At the end of each cycle, the chip surface was regenerated with 10 mM Glycine at pH 1.5. The kinetic rate constant needed to be subtracted from the blank control, and the data was fitted with the global fit analysis method 1:1 combination model. The dissociation equilibrium rate constant (KD) was calculated according to the following formula: KD=kd/ka."}},
  "data": [
    {"molecule": "hIgG control (antibody)", "values": [
      {"measurement": "IL-2 production, SEB-dependent PBMC stimulation test, 0.0032 ug/ml, N = 1", "setting": "[1]", "result": 1620, "unit": "pg/mL"},
      {"measurement": "IL-2 production, SEB-dependent PBMC stimulation test, 0.0032 ug/ml, N = 2", "setting": "[1]", "result": 1590, "unit": "pg/mL"},
      {"measurement": "IL-2 production, SEB-dependent PBMC stimulation test, 0.016 ug/ml, N = 1", "setting": "[1]", "result": 1220, "unit": "pg/mL"},
      {"measurement": "IL-2 production, SEB-dependent PBMC stimulation test, 0.016 ug/ml, N = 2", "setting": "[1]", "result": 1660, "unit": "pg/mL"},
      {"measurement": "IL-2 production, SEB-dependent PBMC stimulation test, 0.08 ug/ml, N = 1", "setting": "[1]", "result": 1020, "unit": "pg/mL"},
      {"measurement": "IL-2 production, SEB-dependent PBMC stimulation test, 0.08 ug/ml, N = 2", "setting": "[1]", "result": 1650, "unit": "pg/mL"},
      {"measurement": "IL-2 production, SEB-dependent PBMC stimulation test, 0.4 ug/ml, N = 1", "setting": "[1]", "result": 1060, "unit": "pg/mL"},
      {"measurement": "IL-2 production, SEB-dependent PBMC stimulation test, 0.4 ug/ml, N = 2", "setting": "[1]", "result": 1680, "unit": "pg/mL"},
      {"measurement": "IL-2 production, SEB-dependent PBMC stimulation test, 2 ug/ml, N = 1", "setting": "[1]", "result": 1130, "unit": "pg/mL"},
      {"measurement": "IL-2 production, SEB-dependent PBMC stimulation test, 2 ug/ml, N = 2", "setting": "[1]", "result": 1630, "unit": "pg/mL"},
      {"measurement": "IL-2 production, SEB-dependent PBMC stimulation test, 10 ug/ml, N = 1", "setting": "[1]", "result": 1280, "unit": "pg/mL"},
      {"measurement": "IL-2 production, SEB-dependent PBMC stimulation test, 10 ug/ml, N = 2", "setting": "[1]", "result": 1490, "unit": "pg/mL"},
      {"measurement": "IL-2 production, antigen-specific T lymphocyte stimulation test, 0.016 ug/ml, N = 1", "setting": "[1]", "result": 336, "unit": "pg/mL"},
      {"measurement": "IL-2 production, antigen-specific T lymphocyte stimulation test, 0.016 ug/ml, N = 2", "setting": "[1]", "result": 298, "unit": "pg/mL"},
      {"measurement": "IL-2 production, antigen-specific T lymphocyte stimulation test, 0.08 ug/ml, N = 1", "setting": "[1]", "result": 286, "unit": "pg/mL"},
      {"measurement": "IL-2 production, antigen-specific T lymphocyte stimulation test, 0.08 ug/ml, N = 2", "setting": "[1]", "result": 282, "unit": "pg/mL"},
      {"measurement": "IL-2 production, antigen-specific T lymphocyte stimulation test, 0.4 ug/ml, N = 1", "setting": "[1]", "result": 322, "unit": "pg/mL"},
      {"measurement": "IL-2 production, antigen-specific T lymphocyte stimulation test, 0.4 ug/ml, N = 2", "setting": "[1]", "result": 286, "unit": "pg/mL"},
      {"measurement": "IL-2 production, antigen-specific T lymphocyte stimulation test, 2 ug/ml, N = 1", "setting": "[1]", "result": 382, "unit": "pg/mL"},
      {"measurement": "IL-2 production, antigen-specific T lymphocyte stimulation test, 2 ug/ml, N = 2", "setting": "[1]", "result": 317, "unit": "pg/mL"},
      {"measurement": "IL-2 production, antigen-specific T lymphocyte stimulation test, 10 ug/ml, N = 1", "setting": "[1]", "result": 338, "unit": "pg/mL"},
      {"measurement": "IL-2 production, antigen-specific T lymphocyte stimulation test, 10 ug/ml, N = 2", "setting": "[1]", "result": 277, "unit": "pg/mL"},
      {"measurement": "Mean fluorescence intensity", "setting": "[2]", "result": 4},
      {"measurement": "Mean fluorescence intensity", "setting": "[3]", "result": 3.1},
      {"measurement": "Mean fluorescence intensity", "setting": "[4]", "result": 3.16},
      {"measurement": "Inhibition rate (%)", "setting": "[5]", "result": 2.1, "unit": "%"},
      {"measurement": "Inhibition rate (%)", "setting": "[6]", "result": 12.3, "unit": "%"},
      {"measurement": "Inhibition rate (%)", "setting": "[7]", "result": 3.1, "unit": "%"},
      {"measurement": "Inhibition rate (%)", "setting": "[8]", "result": -3.6, "unit": "%"},
      {"measurement": "Inhibition rate (%)", "setting": "[9]", "result": -15.7, "unit": "%"},
      {"measurement": "Inhibition rate (%)", "setting": "[10]", "result": -11.2, "unit": "%"}
    ]},
    {"molecule": "B1", "values": [
      {"measurement": "Mean fluorescence intensity", "setting": "[11]", "result": 139},
      {"measurement": "Kd", "setting": "[12]", "result": 2.58, "unit": "nM"},
      {"measurement": "koff", "setting": "[12]", "result": 0.000165, "unit": "s⁻¹"},
      {"measurement": "kon", "setting": "[12]", "result": 64000, "unit": "M⁻¹ s⁻¹"}
    ]},
    {"molecule": "B2", "values": [
      {"measurement": "Kd", "setting": "[12]", "result": 3.39, "unit": "nM"},
      {"measurement": "koff", "setting": "[12]", "result": 0.000455, "unit": "s⁻¹"},
      {"measurement": "kon", "setting": "[12]", "result": 134000, "unit": "M⁻¹ s⁻¹"}
    ]}
  ]
}
